From the RNAGym collection of RNA variant scans (doi:10.7554/elife.80360)

B1: CPEB3 Ribozyme (parent)
chain: GGGGGCCACAGCAGAAGCGUUCACGUCGCGGCCCCUGUCAGAUUCUGGUGAAUCUGCGAAUUCUGCUGU

Variants of: B1
Assay: self-cleavage, relative activity (ratio to wild type); higher = more cleavage; co-transcriptional

In order of falling self-cleavage:
1. A8C U69C  1.07
2. A8G U69C  1.05
3. A8U A10C  1.03
4. C7U G47U  1.02
5. C6U G50C  1.02
6. A8C G68A  1.02
7. C7G G30C  1.01
8. C6U U44G  1.01
9. A8C G48A  1
10. A8G G47A  1
11. A8C C33U  1
12. C6U G48U  1
13. C6U U21A  0.997
14. C7U G50A  0.996
15. A8C A15G  0.995
16. A8C U26C  0.992
17. C7U U46A  0.985
18. A8C C45G  0.984
19. C7U C32U  0.984
20. C7U G58U  0.983
21. A8C U46G  0.982
22. C6U G50U  0.979
23. A8C U43A  0.971
24. C6U U36C  0.969
25. C6U G56A  0.962
26. C7U A52G  0.957
27. C7U U49A  0.957
28. C7U G30A  0.957
29. A8G C34U  0.952
30. A8C U43C  0.95
31. A8U A23C  0.944
32. A8U A42G  0.943
33. A8C U43G  0.938
34. A8U A10G  0.937
35. C7U U46G  0.934
36. A8G U69A  0.928
37. A8U C18U  0.928
38. A8C U44G  0.927
39. A8G G58U  0.92
40. C7U U44G  0.914
41. C7U A52U  0.91
42. C7U A42G  0.908
43. A8C G56U  0.908
44. C6U U43C  0.902
45. A8C U55C  0.891
46. C7A U67A  0.884
47. C7U U44A  0.881
48. A8G G50U  0.877
49. A8G C32U  0.877
50. A8G G50A  0.868
51. A8G G58A  0.867
52. C7A U67G  0.858
53. C6U G65A  0.849
54. A8C U26G  0.835
55. A8G U21A  0.833
56. A8C U26A  0.82
57. C7U G11A  0.816
58. C6U U43G  0.815
59. C7G G68C  0.815
60. C7U G30U  0.814
61. A8C C29U  0.81
62. A8U A13U  0.805
63. C7G G30A  0.791
64. A8C C32A  0.784
65. C7U U53C  0.784
66. C7A A8C  0.769
67. C7U C54G  0.766
68. C7U U43G  0.757
69. C7G U67G  0.75
70. A8G C34A  0.734
71. A8C A59C  0.725
72. A8C C24A  0.707
73. C7U A13U  0.693
74. C7U U21C  0.688
75. A8G A10C  0.666
76. C7U G11C  0.663
77. A8G U38A  0.662
78. C7U G30C  0.608
79. C7A U46A  0.6
80. A8G U67A  0.59
81. C7A C45U  0.566
82. C7A G50C  0.545
83. A8G C32G  0.517
84. C7A A52G  0.515
85. C7U C29U  0.505
86. C7G G48C  0.502
87. C7G U49C  0.491
88. C7A C45A  0.485
89. C7A A42G  0.471
90. A8C G19U  0.462
91. C7G U49A  0.444
92. C7A C39G  0.428
93. C7U G14C  0.417
94. C7A A40G  0.416
95. C7U C29A  0.413
96. C7A A23C  0.407
97. C7G U21A  0.395
98. C7A A42U  0.349
99. A8C C27U  0.342
100. C7A A42C  0.322
101. C7A U53A  0.321
102. C7U C29G  0.314
103. C7G A42U  0.303
104. A8G C57U  0.303
105. C7G A13C  0.285
106. C7U C35G  0.28
107. C7A A13C  0.277
108. C7A U53C  0.274
109. C7A A60G  0.272
110. C7G U38A  0.264
111. C7A G41A  0.255
112. A8C G37C  0.239
113. C7G U43C  0.231
114. A8C G28A  0.215
115. C7A G41U  0.214
116. A8G U21G  0.199
117. C7U C35A  0.194
118. C7U G37A  0.187
119. C7G U62A  0.18
120. C7G G37U  0.179
121. A8C G25U  0.177
122. C7A U26A  0.176
123. C7G G11U  0.175
124. C7G U38C  0.174
125. C7G A40C  0.17
126. C7A U61A  0.169
127. C6U G28U  0.168
128. C7G A59U  0.167
129. C7G G11C  0.157
130. C7U C22U  0.155
131. C7G G37A  0.153
132. C7U G37C  0.152
133. C7G A59C  0.148
134. C6U U20C  0.144
135. A8G A60C  0.143
136. C7A G19A  0.14
137. C7A C22U  0.139
138. A8G G37U  0.134
139. C7A G37A  0.133
140. C7G G41A  0.131
141. A8G G37A  0.128
142. C7A U36A  0.127
143. C7U G28A  0.123
144. C7A G37C  0.122
145. A8G A10G  0.122
146. C7G G41C  0.121
147. C7G U21G  0.119
148. C7G G37C  0.118
149. C6U U20A  0.115
150. C7G C27A  0.11
151. A8C G19C  0.107
152. C7G G25A  0.107
153. C7G C22A  0.104
154. C7A C54G  0.101
155. A8G G31C  0.0995
156. A8C C29G  0.0981
157. C7G C22G  0.0908
158. C7G G14A  0.0844
159. A8G U38G  0.0785
160. C7A G37U  0.0728
161. C7G U38G  0.068
162. C7A U38G  0.0677
163. C7A C29A  0.0674
164. A8G U20A  0.0589
165. C7A C22A  0.0549
166. C7G C18A  0.0277
167. C7G U36A  0.0233
